Test results reported in the supplement of paper PMC9112550, “Optimization of the antimicrobial peptide Bac7 by deep mutational scanning” (BMC Biology, 2022).

Test system: Escherichia coli TOP10
Assay: shrunken log2 fold change of peptide-encoding DNA abundance (4.5 h post-induction vs induction); higher = less antimicrobial activity (less host growth inhibition)
Settings: time post-induction: 4.5 h; library: site-saturation at positions 5, 18, 19, 20
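Also: peptides expressed intracellularly from a pBAD plasmid library in pooled LB shake-flask culture, induced with 0.3% L-arabinose, DNA abundance read by NGS, three biological replicates, DESeq2 with apeglm shrinkage.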

Sequence	shrunken log2 fold change
RRIRLRPPRLPRPRPRPCFKPRP	-0.315
RRIRQRPPRLPRPRPRPRSIPRP	-0.0928
RRIRIRPPRLPRPRPRPGIMPRP	-0.137
RRIRARPPRLPRPRPRPAWRPRP	0.649
RRIRHRPPRLPRPRPRPNQVPRP	0.0339
RRIRYRPPRLPRPRPRPMDAPRP	-0.00112
RRIRHRPPRLPRPRPRPVCWPRP	0.268
RRIRVRPPRLPRPRPRPMDGPRP	0.145
RRIRVRPPRLPRPRPRPQSRPRP	0.0616
RRIRYRPPRLPRPRPRPCPEPRP	-0.421
RRIRKRPPRLPRPRPRPNQNPRP	1.18
RRIRSRPPRLPRPRPRPVRIPRP	-0.239
RRIRNRPPRLPRPRPRPIYGPRP	-0.224
RRIRQRPPRLPRPRPRPWFFPRP	-0.0396
RRIRWRPPRLPRPRPRPQVKPRP	0.0306
RRIRGRPPRLPRPRPRPEWSPRP	0.644
RRIRCRPPRLPRPRPRPNQNPRP	-0.437
RRIRMRPPRLPRPRPRPVLQPRP	0.259
RRIRYRPPRLPRPRPRPPRSPRP	-0.148
RRIRHRPPRLPRPRPRPDHEPRP	-0.018
RRIRDRPPRLPRPRPRPEGAPRP	1.78
RRIRYRPPRLPRPRPRPTGNPRP	-0.858
RRIRARPPRLPRPRPRPRCYPRP	0.0779
RRIRCRPPRLPRPRPRPFMRPRP	0.0501
RRIRFRPPRLPRPRPRPCIDPRP	0.255

Sequence	shrunken log2 fold change
RRIRNRPPRLPRPRPRPYGEPRP	-0.16
RRIRARPPRLPRPRPRPVEGPRP	0.329
RRIRDRPPRLPRPRPRPISMPRP	0.0543
RRIRQRPPRLPRPRPRPYKLPRP	-0.603
RRIRDRPPRLPRPRPRPQSHPRP	0.236
RRIRCRPPRLPRPRPRPMLIPRP	-0.552
RRIRYRPPRLPRPRPRPCEEPRP	-0.156
RRIRMRPPRLPRPRPRPLKWPRP	0.196
RRIRWRPPRLPRPRPRPCVKPRP	-0.0416
RRIRGRPPRLPRPRPRPIYTPRP	0.173
RRIRVRPPRLPRPRPRPLGRPRP	0.267
RRIRNRPPRLPRPRPRPILMPRP	-0.0495
RRIRWRPPRLPRPRPRPMINPRP	-0.212
RRIRERPPRLPRPRPRPQLDPRP	0.115
RRIRSRPPRLPRPRPRPCYFPRP	-0.387
RRIRHRPPRLPRPRPRPIYRPRP	-0.111
RRIRRRPPRLPRPRPRPHRFPRP	-0.0954
RRIRARPPRLPRPRPRPRLNPRP	0.316
RRIRKRPPRLPRPRPRPIDWPRP	0.29
RRIRNRPPRLPRPRPRPDVVPRP	-0.0975
RRIRFRPPRLPRPRPRPKDYPRP	-0.788
RRIRRRPPRLPRPRPRPYQIPRP	0.022
RRIRMRPPRLPRPRPRPQIKPRP	-0.0128
RRIRLRPPRLPRPRPRPQAAPRP	0.0357
RRIRPRPPRLPRPRPRPDDFPRP	-0.371

Sequence	shrunken log2 fold change
RRIRVRPPRLPRPRPRPNKIPRP	-0.295
RRIRWRPPRLPRPRPRPASTPRP	0.349
RRIRPRPPRLPRPRPRPLICPRP	-0.164
RRIRGRPPRLPRPRPRPMVLPRP	-0.0349
RRIRKRPPRLPRPRPRPPWKPRP	0.173
RRIRDRPPRLPRPRPRPRQCPRP	-0.0309
RRIRARPPRLPRPRPRPLMGPRP	0.489
RRIRWRPPRLPRPRPRPRIYPRP	0.068
RRIRLRPPRLPRPRPRPIVMPRP	-0.618
RRIRMRPPRLPRPRPRPAHSPRP	0.111
RRIRVRPPRLPRPRPRPPCVPRP	-0.112
RRIRARPPRLPRPRPRPVCGPRP	0.653
RRIRERPPRLPRPRPRPFREPRP	-0.235
RRIRIRPPRLPRPRPRPPVFPRP	0.0815
RRIRLRPPRLPRPRPRPPKAPRP	0.025
RRIRLRPPRLPRPRPRPHSDPRP	-0.175
RRIRYRPPRLPRPRPRPMIEPRP	0.00164
RRIRSRPPRLPRPRPRPVWAPRP	0.67
RRIRERPPRLPRPRPRPFLKPRP	-0.0233
RRIRIRPPRLPRPRPRPCWPPRP	-0.232
RRIRDRPPRLPRPRPRPFFSPRP	0.115
RRIRIRPPRLPRPRPRPGMLPRP	0.0213
RRIRDRPPRLPRPRPRPHNHPRP	-0.612
RRIRCRPPRLPRPRPRPFRNPRP	-0.0491
RRIRKRPPRLPRPRPRPQYWPRP	0.152

Sequence	shrunken log2 fold change
RRIRYRPPRLPRPRPRPVYPPRP	-0.208
RRIRSRPPRLPRPRPRPRLNPRP	0.15
RRIRERPPRLPRPRPRPEISPRP	-0.407
RRIRYRPPRLPRPRPRPRLRPRP	0.0744
RRIRPRPPRLPRPRPRPHLSPRP	-0.142
RRIRSRPPRLPRPRPRPEMVPRP	0.0797
RRIRPRPPRLPRPRPRPHQIPRP	1.04
RRIRLRPPRLPRPRPRPFPPPRP	0.00271
RRIRPRPPRLPRPRPRPLKSPRP	-0.157
RRIRRRPPRLPRPRPRPHTMPRP	-0.0621
RRIRHRPPRLPRPRPRPTLLPRP	-0.281
RRIRLRPPRLPRPRPRPEGKPRP	-0.00133
RRIRIRPPRLPRPRPRPMRQPRP	0.3
RRIRARPPRLPRPRPRPIQCPRP	0.00559
RRIRVRPPRLPRPRPRPCIQPRP	-0.00992
RRIRCRPPRLPRPRPRPVWMPRP	-0.179
RRIRWRPPRLPRPRPRPMPFPRP	-0.133
RRIRGRPPRLPRPRPRPWYRPRP	-0.19
RRIRTRPPRLPRPRPRPFMYPRP	-0.576
RRIRNRPPRLPRPRPRPGVFPRP	0.117
RRIRGRPPRLPRPRPRPAVNPRP	0.402
RRIRVRPPRLPRPRPRPYPDPRP	-0.293
RRIRIRPPRLPRPRPRPMAQPRP	0.00812
RRIRIRPPRLPRPRPRPVLRPRP	-0.0796
RRIRMRPPRLPRPRPRPKINPRP	-0.194

Sequence	shrunken log2 fold change
RRIRERPPRLPRPRPRPGFPPRP	0.176
RRIRERPPRLPRPRPRPTPSPRP	0.14
RRIRDRPPRLPRPRPRPTTEPRP	0.578
RRIRWRPPRLPRPRPRPHTSPRP	-0.672
RRIRMRPPRLPRPRPRPNAVPRP	0.0414
RRIRARPPRLPRPRPRPDTFPRP	0.158
RRIRHRPPRLPRPRPRPWEEPRP	-0.0121
RRIRDRPPRLPRPRPRPAQVPRP	-0.286
RRIRLRPPRLPRPRPRPCHIPRP	-0.113
RRIRHRPPRLPRPRPRPLMAPRP	-0.206
RRIRTRPPRLPRPRPRPDIIPRP	-0.232
RRIRHRPPRLPRPRPRPIHSPRP	0.0202
RRIRWRPPRLPRPRPRPDCKPRP	-0.0137
RRIRARPPRLPRPRPRPNGFPRP	0.113
RRIRYRPPRLPRPRPRPPPMPRP	0.46
RRIRYRPPRLPRPRPRPMVPPRP	-0.909
RRIRLRPPRLPRPRPRPDTSPRP	-0.114
RRIRDRPPRLPRPRPRPWGPPRP	-0.0594
RRIRYRPPRLPRPRPRPVSAPRP	-0.332
RRIRLRPPRLPRPRPRPDKWPRP	0.0575
RRIRYRPPRLPRPRPRPLQRPRP	-0.208
RRIRGRPPRLPRPRPRPIIHPRP	-0.261
RRIRTRPPRLPRPRPRPIFIPRP	-0.383
RRIRARPPRLPRPRPRPSWLPRP	0.0254
RRIRWRPPRLPRPRPRPKRQPRP	0.167

Sequence	shrunken log2 fold change
RRIRARPPRLPRPRPRPTSPPRP	0.292
RRIRERPPRLPRPRPRPCYMPRP	-0.0163
RRIRRRPPRLPRPRPRPTPFPRP	0.632
RRIRIRPPRLPRPRPRPQPAPRP	0.213
RRIRPRPPRLPRPRPRPHIHPRP	-0.82
RRIRLRPPRLPRPRPRPENPPRP	-0.173
RRIRDRPPRLPRPRPRPGALPRP	0.191
RRIRCRPPRLPRPRPRPQHDPRP	-0.219
RRIRHRPPRLPRPRPRPHDIPRP	0.0564
RRIRCRPPRLPRPRPRPCSWPRP	0.0276
RRIRHRPPRLPRPRPRPFWPPRP	0.131
RRIRPRPPRLPRPRPRPAGFPRP	0.301
RRIRLRPPRLPRPRPRPVFYPRP	-0.5
RRIRCRPPRLPRPRPRPFDWPRP	-0.0737
RRIRDRPPRLPRPRPRPQVVPRP	0.0572
RRIRMRPPRLPRPRPRPLWWPRP	0.795
RRIRCRPPRLPRPRPRPDSHPRP	-0.199
RRIRKRPPRLPRPRPRPGGAPRP	0.729
RRIRMRPPRLPRPRPRPQFPPRP	0.16
RRIRQRPPRLPRPRPRPYFKPRP	-0.454
RRIRGRPPRLPRPRPRPPMIPRP	-0.0528
RRIRKRPPRLPRPRPRPRYAPRP	-0.129
RRIRDRPPRLPRPRPRPWVTPRP	-0.0629
RRIRERPPRLPRPRPRPVCMPRP	-0.164
RRIRHRPPRLPRPRPRPSVAPRP	-0.156
